Source: patent US20210238276A1 (INTEGRAL MOLECULAR, published 2021)
Residue numbers refer to the chain shown, from its start.

How the values were obtained:
Assay in all cases: flow cytometry, alanine-scan library in HEK-293T, with cytochalasin B
hsGLUT4 V306A = molecular target: T1, hsGLUT4 V306A (human, UniProt P14672 1-509)
T1 sequence: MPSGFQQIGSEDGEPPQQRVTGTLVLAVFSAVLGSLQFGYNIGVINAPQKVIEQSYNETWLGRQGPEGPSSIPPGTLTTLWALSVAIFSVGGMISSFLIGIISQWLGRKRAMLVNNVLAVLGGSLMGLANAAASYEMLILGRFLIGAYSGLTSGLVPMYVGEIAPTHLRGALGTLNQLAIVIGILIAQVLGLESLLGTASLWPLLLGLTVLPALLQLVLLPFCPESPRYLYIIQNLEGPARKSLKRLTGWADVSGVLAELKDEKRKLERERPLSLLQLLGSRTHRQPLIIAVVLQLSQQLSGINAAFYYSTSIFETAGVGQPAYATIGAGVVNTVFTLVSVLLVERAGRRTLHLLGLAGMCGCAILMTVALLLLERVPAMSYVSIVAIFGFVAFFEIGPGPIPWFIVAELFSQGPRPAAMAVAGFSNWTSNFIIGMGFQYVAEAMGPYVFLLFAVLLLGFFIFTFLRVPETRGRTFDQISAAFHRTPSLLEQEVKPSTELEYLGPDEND
Experimental: (§1) Because of the state-dependence of the isolated MAbs, we next wished to understand the mechanism by which each MAb could recognize GLUT4 in its different conformations. The residues required for binding of each MAb were determined using shotgun mutagenesis comprehensive alanine scanning (Davidson E & Doranz B J (2014) A High-Throughput Shotgun Mutagenesis Approach to Mapping B-cell Antibody Epitopes. Immunology, which is hereby incorporated by reference in its entirety). All residues of hsGLUT4 were individually mutated to alanine, with existing alanines changed to serines. Mutations were obtained for 508 of the 509 residues of GLUT4 (excluding the initiating methionine). The entire mutation library was transfected into human HEK-293T cells in a 384-well array format (one clone per well) and assessed for immunoreactivity using high-throughput flow cytometry.
(§2) HEK-293T cells were transfected by CaPO₄ with plasmids in 6-well culture plates (Falcon) at 750,000 cells/well. At 48 hours post transfection, cells were stained with anti-V5 and anti-GLUT4 MAbs (purified scFv, 2 μg/ml) followed by biotinylated goat anti-mouse or human antibody (1:500) and streptavidin-PerCP (1:500). Fluorescence was detected using an Intellicyt high-throughput flow cytometer (HTFC; Intellicyt, Albuquerque, N. Mex.). For cell permeabilization, cells were treated with saponin at 0.1% in PBS for 20 minutes. To discriminate intact (live) and permeabilized (dead) cells without the use of detergent, propidium iodide (PI) was added to HEK-293T cells at 1 ug/ml just prior to flow cytometry. Where indicated, cytochalasin B (Sigma) was used at a final concentration of 10 uM and phloretin (Sigma) was used at a final concentration of 100 uM, each added in 10% NGS for 30 minutes prior to antibody staining as well as included with the primary antibody.

hsGLUT4 G356A = molecular target: T2, hsGLUT4 G356A (human, UniProt P14672 1-509)
T2 sequence: T1 sequence with A306V, G356A
Experimental: as §1, §2

hsGLUT4 G504A = molecular target: T3, hsGLUT4 G504A (human, UniProt P14672 1-509)
T3 sequence: T1 sequence with A306V, G504A
Experimental: as §1, §2

hsGLUT4 N508A = molecular target: T4, hsGLUT4 N508A (human, UniProt P14672 1-509)
T4 sequence: T1 sequence with A306V, N508A
Experimental: as §1, §2

% of binding to wild type GLUT4 (hsGLUT4 V306A): 29% | % of binding to wild type GLUT4 (hsGLUT4 G356A): 72% | % of binding to wild type GLUT4 (hsGLUT4 G504A): 71% | % of binding to wild type GLUT4 (hsGLUT4 N508A): 70%
B1: AB102 (Fc fusion)
scFv: ALTQPSSVSANLGGTVKITCSGGGSYGYGWYQQKSPGSAPVTVIYSNDQRPSDIPSRFSGSKSGSTATLTITGVRAEDEAIYYCGSTDSDYVGIFGAGTTLTVLGQSSRSSGGGGSSGGGGSAVTLDESGGGLQTPGGTLSLVCKASGFDFSSYATIWVRQAPGKGLEWVAGISGTGTGSSTGYAPAVKGRATISRDNGQSTVRLQLNNLRAEDTGSYFCAKSTGYGDSWIYPDSIDAWGHGTEVIVSS
notes: also called MAb AB102; not shown: Fc fragment of human IgG1, cloned in frame with the scFv
